Measured values reported in paper doi:10.1101/2021.12.29.474442, “Microtubule plus-end regulation by centriolar cap proteins” (bioRxiv, 2021).

T1: CPAP-CC1 (residues 89-196) (human, UniProt Q9HC77 89-196)
T1 construct: CPAP (CENPJ), human, residues 89-196 (coiled-coil domain CC1); Cleaved with HRV 3C (PreScission site); also called CPAP 89-196; source: E. coli BL21(DE3), purified (Ni-NTA, tag cleavage, SEC); not shown: thioredoxin, N-terminal, cleaved; His6, N-terminal, cleaved
T1 sequence (looked up): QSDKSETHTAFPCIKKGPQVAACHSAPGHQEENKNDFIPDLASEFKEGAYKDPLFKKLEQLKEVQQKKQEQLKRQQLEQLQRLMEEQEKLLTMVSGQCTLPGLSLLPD


Legend:
[1] = target: the molecule itself; test: SEC-MALS; 20°C, Superdex S75 or S200 10/30, 20 mM HEPES pH 7.5, 150 mM NaCl, 2 mM DTT; about 7 mg/ml loaded; proteins alone and equimolar (also 2:1, 3:1) mixtures
[2] = target: T1, CPAP-CC1 (residues 89-196); test: cross-linking; zero-length cross-linker DMTMM (60 mM, 6 min, 25°C) followed by mass spectrometry (xQuest); details: both partners purified
[3] = target: the molecule itself; test: single-molecule fluorescence intensity counting (TIRF); single molecules immobilised on coverslips in MRB80 buffer; intensity compared with purified GFP (monomers) and GFP-EB3 (dimers)

Row | Binder | stoichiometry N [1] | binding result [2] | stoichiometry N [3]
1 | CP110-CC2 (residues 635-717) (domain or fragment, human, UniProt O43303-2 635-717, looked up, CP110, human, residues 635-717 (coiled-coil domain CC2); Homodimer alone by SEC-MALS; one chain of it stands in the heterodimer with CPAP-CC1; source: E. coli BL21(DE3), purified (Ni-NTA, tag cleavage, SEC); not shown: thioredoxin, N-terminal, cleaved; His6, N-terminal, cleaved) GTSSKESEELLKSKMLAFEEMRKRLEEQHAQQLSLLIAEQEREQERLQKEIEEQEKMLKEKKAMTAEASELDINNAVELEWRK | 2 | binds | –
2 | CEP97^CP110-GFP-SII (chimera of CEP97 1-650 and CP110 581-991) (other, human, UniProt Q8IW35 1-650, looked up, CEP97, human, N-terminal amino acids 1-650; A dimer by single-molecule fluorescence intensity; No linker between the two parts is told. pTT5 based vector (Addgene #52355 is the vector); also called CEP97-CP110 chimera; CP110-CEP97 fusion) MAVARVDAALPPGEGSVVNWSGQGLQKLGPNLPCEADIHTLILDKNQIIKLENLEKCKRLIQLSVANNRLVRMMGVAKLTLLRVLNLPHNSIGCVEGLKELVHLEWLNLAGNNLKAMEQINSCTALQHLDLSDNNISQIGDLSKLVSLKTLLLHGNIITSLRMAPAYLPRSLAILSLAENEIRDLNEISFLASLTELEQLSIMNNPCVMATPSIPGFDYRPYIVSWCLNLRVLDGYVISQKESLKAEWLYSQGKGRAYRPGQHIQLVQYLATVCPLTSTLGLQTAEDAKLEKILSKQRFHQRQLMNQSQNEELSPLVPVETRASLIPEHSSPVQDCQISQESEPVIQVNSWVGINSNDDQLFAVKNNFPASVHTTRYSRNDLHLEDIQTDEDKLNCSLLSSESTFMPVASGLSPLSPTVELRLQGINLGLEDDGVADESVKGLESQVLDKEEEQPLWAANENSVQMMRSEINTEVNEKAGLLPCPEPTIISAILKDDNHSLTFFPESTEQKQSDIKKPENTQPENKETISQATSEKLPMILTQRSVALGQDKVALQKLNDAATKLQACWRGFYARNYNPQAKDVRYEIRLRRMQEHIVCLTDEIRRLRKERDEERIKKFVQEEAFRFLWNQVRSLQVWQQTVDQRLSSWHFEKVKRRLDLDIDGLQKENCPYVITSGITEQERQHLPEKRYPKGSGFVNKNKMLGTSSKESEELLKSKMLAFEEMRKRLEEQHAQQLSLLIAEQEREQERLQKEIEEQEKMLKEKKAMTAEASELDINNAVELEWRKISDSSLLETMLSQADSLHTSNSNSSGFTNSAMQYSFVSANEAPFYLWGSSTSGLTKLSVTRPFGRAKTRWSQVFSLEIQAKFNKITAVAKGFLTRRLMQTDKLKQLRQTVKDTMEFIRSFQSEAPLKRGIVSAQDASLQERVLAQLRAALYGIHDIFFVMDAAERMSILHHDREVRKEKMLRQMDKMKSPRVALSAATQKSLDRKKYMKAAEMGMPNKKFLVKQNPSETRVLQPNQGQNAPVHRLLSRQGSICRKNPKKAAKCCDNLRRQHSLG | – | – | 2
